Assay results reported in patent US20180319873A1 (TAIPEI MEDICAL UNIVERSITY, published 2018).

T1: His-CaENO1 (recombinant Candida albicans alpha-enolase with His tag) (Candida albicans, UniProt P30575 1-440)
T1 construct: Expressed from pQE30-CaENO1 in E. coli BL21, purified on Ni resin, about 49 kDa; also called recombinant CaENO1 protein; purified CaENO1; not shown: His tag from the pQE30 vector
T1 sequence (looked up): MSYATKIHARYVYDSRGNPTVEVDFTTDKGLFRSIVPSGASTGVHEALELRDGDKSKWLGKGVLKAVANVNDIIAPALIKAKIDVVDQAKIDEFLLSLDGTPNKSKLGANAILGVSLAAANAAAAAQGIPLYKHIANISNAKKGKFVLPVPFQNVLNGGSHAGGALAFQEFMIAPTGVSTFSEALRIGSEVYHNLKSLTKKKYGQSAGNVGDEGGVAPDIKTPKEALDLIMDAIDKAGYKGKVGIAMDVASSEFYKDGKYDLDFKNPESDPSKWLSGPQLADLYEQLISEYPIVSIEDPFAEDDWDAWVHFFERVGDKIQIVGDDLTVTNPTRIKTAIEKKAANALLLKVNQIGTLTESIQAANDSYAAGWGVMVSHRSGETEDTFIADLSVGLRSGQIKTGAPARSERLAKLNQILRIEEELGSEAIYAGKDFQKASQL


Tests used:
[1] = target: native CaENO1 of Candida albicans (alpha-enolase on the cell surface and in cell lysates) (Candida albicans) (UniProt P30575); assay: flow cytometry on C. albicans SC 5314 cells, 100 ug antibody (negative control)
[2] = target: T2, mENO1 (purified recombinant mouse ENO1) (mouse, UniProt P17182 1-434, limits assumed); assay: Western blot on purified ENO1 proteins
T2 construct: not shown: His tag, 'expressed and purified in the same way' as His-CaENO1
T2 sequence (P17182 whole entry): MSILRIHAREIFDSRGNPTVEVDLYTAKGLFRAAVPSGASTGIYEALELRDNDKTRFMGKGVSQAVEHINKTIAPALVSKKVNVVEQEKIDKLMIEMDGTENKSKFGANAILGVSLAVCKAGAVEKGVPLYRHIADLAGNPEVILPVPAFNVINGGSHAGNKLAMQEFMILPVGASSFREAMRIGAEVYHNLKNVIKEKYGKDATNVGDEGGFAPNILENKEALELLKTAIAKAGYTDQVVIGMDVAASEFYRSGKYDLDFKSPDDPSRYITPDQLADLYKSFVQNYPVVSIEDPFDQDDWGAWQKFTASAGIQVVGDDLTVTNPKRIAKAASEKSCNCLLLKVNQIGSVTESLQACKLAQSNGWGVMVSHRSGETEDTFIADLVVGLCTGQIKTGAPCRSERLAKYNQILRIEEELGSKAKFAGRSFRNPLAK

[3] = target: T3, hENO1 (purified recombinant human ENO1) (human, UniProt P06733 1-434, limits assumed); assay: Western blot on purified ENO1 proteins
T3 construct: not shown: His tag, 'expressed and purified in the same way' as His-CaENO1
T3 sequence (P06733 whole entry): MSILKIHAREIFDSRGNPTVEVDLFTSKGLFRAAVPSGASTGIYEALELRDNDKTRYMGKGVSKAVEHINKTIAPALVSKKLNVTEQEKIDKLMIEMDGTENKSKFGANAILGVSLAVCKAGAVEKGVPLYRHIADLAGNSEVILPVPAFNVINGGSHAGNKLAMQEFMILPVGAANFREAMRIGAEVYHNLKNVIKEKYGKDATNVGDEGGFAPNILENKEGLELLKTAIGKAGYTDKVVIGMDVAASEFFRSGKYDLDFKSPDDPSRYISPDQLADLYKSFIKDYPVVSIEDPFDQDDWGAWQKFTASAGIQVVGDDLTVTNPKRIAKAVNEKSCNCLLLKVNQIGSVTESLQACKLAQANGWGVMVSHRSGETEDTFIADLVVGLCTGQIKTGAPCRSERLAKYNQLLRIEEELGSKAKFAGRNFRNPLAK

[4] = target: T1, His-CaENO1 (recombinant Candida …); assay: ELISA, serial dilution of CaS1 scFv on coated His-CaENO1
[5] = target: T1, His-CaENO1 (recombinant Candida …); assay: ELISA, serial dilution of CaS1 scFv on coated recombinant CaENO1; concentration at 50% of OD
[6] = target: T1, His-CaENO1 (recombinant Candida …); assay: competitive ELISA, serial dilution of free CaENO1 mixed with 1 µg/mL CaS1 scFv, then added to coated CaENO1; printed as KD of CaS1 scFv
[7] = target: T1, His-CaENO1 (recombinant Candida …); assay: competitive ELISA, serial dilution of free His-CaENO1 mixed with 1 µg/mL CaS1, then added to coated His-CaENO1; printed as KD of CaS1 scFv

Row | Molecule | % FITC fluorescence reaction [1] [%] | binding result [2] | binding result [3] | Kd [4] [nM] | Kd [5] [µg/mL] | Kd [6] [µg/mL] | Kd [7] [nM]
1 | control scFv (irrelevant scFv) | 23 | – | – | – | – | – | –
2 | CaS1 scFv (anti-CaENO1 scFv monoclonal antibody) (scFv, Chicken scFv from a phage library in pComb3X, expressed in E. coli, purified on Ni Sepharose; also called scFv CaS1; His-CaS1 scFv; not shown: His tag (and HA tag) from the pComb3X vector) scFv: ALTQPSSVSANLGGTVKITCSGGSGSYGWYQQKSPGSAPVTVIYSNNQRPSNIPSRFSGSPSGSTGTLTITGVQADDEAVYFCGSRDSSYVGVFGAGTTLTVLGQSSRSSTVTLDESGGGLQTPRGALSLVCKASGFTFIDYGMQWVRQAPGKGLEWVAGIGSSGSSTNYGAAVKGRATISRDDGQSTVRLQLNNLRAEDTGTYYCAKSAGGYCVNGAGCNGGSIDAWGHGTEVIVSS | – | binds | binds | 18.8 | 0.498 | 4.45 | 89
